From the supplement of paper PMC7877785
± gives the uncertainty stated by the source.

Experiment: self-splicing fitness, log relative to wild type (ln ratio); higher = more splicing; Tetrahymena group I intron in knt gene, E. coli kanamycin selection, DiMSum; sequences stand for … in CUCUCU…GGAGGGAAAAGUUAUCAGGCAUGCACCUGGUAGCUAGUCUUUAAACCAAUAGAUUGCAUCGGUUUAAAAGGCAAGACCGUCAAAUUGCGGGAAAGGGGUCAACAGCCGUUCAGUACCAAGUCUCAGGGGAAACUUUGAGAUGGCCUUGCAAAGGGUAUGGUAAUAAGCUGACGGACAUGGUCCUAACCACGCAGCCAAGUCCUAAGUCAACAGAUCUUCUGUUGAUAUGGAUGCAGUUCACAGACUAAAUGUCGGUCGGGGAAGAUGUAUUCUUCUCAUAAGAUAUAGUCGGACCUCUCCUUAAUGGGAGCUAGCGGAUGAAGUGAUGCAACACUGGAGCCGCUGGGAACUAAUUUGUAUGCGAAAGUAUAUUGAUUAGUUUUGGAGUACUCGUGGUCG
Method in brief: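 Six replicate transformations of E. coli BL21(DE3) with a pET-22b(+) library were grown overnight at 37°C or 30°C. The library randomised all eight P1ex-region intron nucleotides, the intron lying in the knt kanamycin-resistance gene, and plates were LB agar with or without 25 μg/mL kanamycin plus 100 μg/mL carbenicillin, 50 μM IPTG and 0.2% rhamnose. Pooled colonies were amplicon-sequenced on an Illumina HiSeq 2500, and fitness is the DiMSum error-weighted combination of wild-type-normalised replicate fold changes, kanamycin versus none.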

Sequence | self-splicing fitness (ln) (30 °C) | self-splicing fitness (ln) (37 °C)
CUGGAGCAAUAUUACGGCGU | -2.77 ± 0.18 | –
CUGGAGCAAUAUUACGGCUU | -4.3 ± 0.42 | -2.68 ± 0.33
CUGGAGCAAUAUUACGGUCU | -4.34 ± 0.32 | -2.38 ± 0.29
CUGGAGCAAUAUUACGGUUU | -2.21 ± 0.15 | -2.43 ± 0.26
CUGGAGCAAUAUUACGUCAU | -4.18 ± 0.25 | -3.19 ± 0.4
CUGGAGCAAUAUUACGUGCA | -3.46 ± 0.41 | –
CUGUAGCAAUAUUACGAACG | 0.0721 ± 0.084 | 0.403 ± 0.1
CUGUAGCAAUAUUACGAAGA | – | -2.29 ± 0.29
CUGUAGCAAUAUUACGAAGG | -1.83 ± 0.21 | -2.22 ± 0.3
CUGUAGCAAUAUUACGACGG | -2.64 ± 0.23 | -1.07 ± 0.42
CUGUAGCAAUAUUACGAUAA | -3.19 ± 0.38 | -1.72 ± 0.27
CUGUAGCAAUAUUACGAUUA | -2.74 ± 0.33 | -1.24 ± 0.4
CUGUAGCAAUAUUACGAUUG | -1.2 ± 0.23 | 0.185 ± 0.22
CUGUAGCAAUAUUACGCAAC | – | -2.99 ± 0.47
CUGUAGCAAUAUUACGCACG | -0.568 ± 0.12 | -0.0751 ± 0.12
CUGUAGCAAUAUUACGCAUC | -3.45 ± 0.32 | -2.69 ± 0.34
CUGUAGCAAUAUUACGCCCA | -1.79 ± 0.28 | -2.56 ± 0.27
CUGUAGCAAUAUUACGCCCG | -0.124 ± 0.26 | -0.221 ± 0.31
CUGUAGCAAUAUUACGCGCG | -0.982 ± 0.12 | -0.117 ± 0.14
CUGUAGCAAUAUUACGCGGA | -2.92 ± 0.23 | -2.91 ± 0.24

Sequence | self-splicing fitness (ln) (30 °C) | self-splicing fitness (ln) (37 °C)
CUGUAGCAAUAUUACGGAGU | -3.65 ± 0.23 | -2.74 ± 0.24
CUGUAGCAAUAUUACGGAUA | -2.3 ± 0.28 | -2.22 ± 0.33
CUGUAGCAAUAUUACGGCAU | -3.45 ± 0.31 | -1.86 ± 0.27
CUGUAGCAAUAUUACGGCGG | -2.82 ± 0.27 | -1.93 ± 0.32
CUGUAGCAAUAUUACGGUUG | -0.904 ± 0.081 | -0.833 ± 0.087
CUGUAGCAAUAUUACGUACC | – | -0.725 ± 0.38
CUGUAGCAAUAUUACGUCGU | -2.99 ± 0.31 | -1.8 ± 0.28
CUGUAGCAAUAUUACGUCUC | -4.07 ± 0.39 | –
CUGUAGCAAUAUUACGUGAA | – | -2.71 ± 0.29
CUGUAGCAAUAUUACGUGUC | -2.97 ± 0.27 | -1.29 ± 0.17
CUGUAGCAAUAUUACGUUCU | -3.72 ± 0.34 | -2.94 ± 0.4
CUGUAGCAAUAUUACGUUUG | -1.44 ± 0.085 | -0.284 ± 0.1
CUUAAGCAAUAUUACGACAG | 0.325 ± 0.096 | -0.266 ± 0.12
CUUAAGCAAUAUUACGACGU | -2.75 ± 0.16 | -1.44 ± 0.15
CUUAAGCAAUAUUACGAGGA | -2.64 ± 0.34 | -3.43 ± 0.46
CUUAAGCAAUAUUACGAGGG | -2.95 ± 0.21 | -2.85 ± 0.29
CUUAAGCAAUAUUACGAGUU | – | -2.42 ± 0.36
CUUAAGCAAUAUUACGAUUG | -1.68 ± 0.12 | -1.11 ± 0.13
CUUAAGCAAUAUUACGCAUG | -2.35 ± 0.12 | -1.5 ± 0.13
CUUAAGCAAUAUUACGCCUG | -2.06 ± 0.1 | -0.858 ± 0.089
